The target in the test is T1, Full-length human GPR1, wild type, N-terminal FLAG tag (pcDNA3.1(+)) (human) (UniProt P46091).
T1 sequence: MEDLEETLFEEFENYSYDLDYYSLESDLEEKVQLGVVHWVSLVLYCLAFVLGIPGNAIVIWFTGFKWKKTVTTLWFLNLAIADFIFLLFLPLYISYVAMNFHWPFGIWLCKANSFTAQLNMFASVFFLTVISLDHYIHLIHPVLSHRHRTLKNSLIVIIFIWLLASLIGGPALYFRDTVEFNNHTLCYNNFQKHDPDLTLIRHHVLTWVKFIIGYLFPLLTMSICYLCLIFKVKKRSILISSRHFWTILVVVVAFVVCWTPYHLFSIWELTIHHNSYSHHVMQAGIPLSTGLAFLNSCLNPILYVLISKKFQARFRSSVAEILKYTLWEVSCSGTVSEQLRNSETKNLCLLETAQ

B1: Full-length chemerin (abcam, ab256228) (ligand)
chain: ELTEAQRRGLQVALEEFHKHPPVQWAFQETSVESAVDTPFPAGIFVRLEFKLQQTSCRKRDWKKPECKVRPNGRKRKCLACIKLGSEDKVLGRLVHCPIETQVLREAEEHQETQCLRVQRAGEDPHSFYFPGQFAFS
In turn, B1 came in with an EC50 of cAMP inhibition (HeLa) and NanoBiT G protein dissociation (HEK293T) of 0.1 nM.

For the origin of these results see publication PMC11515964.
